Earlier results, collected in paper PMC10536416.
Where two headings read alike, the source gives them in different places.

Key:
[1] = target: Amyloid beta 1-42 Abeta 1-42 (Homo sapiens) (UniProt P05067)
[2] = target: Amyloid beta 1-42 Abeta 1-42 (Homo sapiens) (UniProt P05067); remark: listed apart in the source

| Kd [1] [nM] | Kd [2] [nM] | Substance |
| --- | --- | --- |
| 266 |  | Amyloid beta 1-40 Abeta 1-40 (from UniProt P05067) |
|  | 202 | Amyloid beta 1-40 on dextran-coated iron oxide nanoparticles Abeta 1-40 (from UniProt P05067) |
